Test results taken from the supplement of paper PMC12455559.
± gives the standard deviation of the averaged measurements.

What was measured:
[1] = melting temperature (DSF); higher = more thermostable
How it was run: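 Values are melting temperatures from differential scanning fluorimetry. Candidate enzymes were expressed in E. coli C41(DE3), purified on nickel beads and freed by SUMO protease cleavage. In sealed PCR plates on a Bio-Rad CFX96, 45 μL enzyme (0 to 0.3 mg/mL) was combined with 5 μL 5X Sypro Orange. Fluorescence was recorded from 25 °C for 250 cycles, rising 0.3 °C per cycle at a ramp of 0.3 °C/s.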

[2] = purified protein yield per well (BCA); higher = higher soluble expression
How it was run: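 Values under 25 ug (0.1 mg/mL) are below the detection threshold. Purified protein yield per well was quantified with the Pierce Rapid Gold BCA kit after candidate enzymes, expressed in E. coli C41(DE3), were captured on Ni-charged magnetic beads and released by SUMO protease on an OT-2 robot. Cultures were 2 mL autoinduction with 100 µg/mL kanamycin, run 2 h at 37 °C and then 40 h at 18 °C.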

[3] = PET hydrolysis, aromatic products released after 48 h (umol product/mg enzyme); higher = more PET depolymerization activity
How it was run: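 The measure of PET hydrolysis activity is aromatic product released into the supernatant, given per mg enzyme. Nickel-purified, SUMO-cleaved enzyme without tag was added at 5 μg (50 μL) to 3.5 mg amorphous PET film or crystalline PET powder in 450 μL of citrate, phosphate or glycine buffer spanning pH 4.5 to 8.5. After 48 h at 40 or 60 °C in sealed plates without shaking, absorbance at 260 and 280 nm was taken against buffer blanks.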

[4] = substrate: cryPow, 40 °C, pH 4.5
[5] = substrate: cryPow, 40 °C, pH 5.5
[6] = substrate: cryPow, 40 °C, pH 6.5
[7] = substrate: cryPow, 40 °C, pH 7.5
[8] = substrate: cryPow, 60 °C, pH 4.5
[9] = substrate: cryPow, 60 °C, pH 5.5
[10] = substrate: cryPow, 60 °C, pH 6.5
[11] = substrate: cryPow, 60 °C, pH 7.5
[12] = substrate: aFilm, 40 °C, pH 4.5
[13] = substrate: aFilm, 40 °C, pH 5.5
[14] = substrate: aFilm, 40 °C, pH 6.5
[15] = substrate: aFilm, 40 °C, pH 7.5
[16] = substrate: aFilm, 60 °C, pH 4.5
[17] = substrate: aFilm, 60 °C, pH 5.5
[18] = substrate: aFilm, 60 °C, pH 6.5
[19] = substrate: aFilm, 60 °C, pH 7.5

Row | Sequence | melting temperature [1] [C] | purified protein yield per well [2] [µg] | PET hydrolysis [3, 4] | PET hydrolysis [3, 5] | PET hydrolysis [3, 6] | PET hydrolysis [3, 7] | PET hydrolysis [3, 8] | PET hydrolysis [3, 9] | PET hydrolysis [3, 10] | PET hydrolysis [3, 11] | PET hydrolysis [3, 12] | PET hydrolysis [3, 13] | PET hydrolysis [3, 14] | PET hydrolysis [3, 15] | PET hydrolysis [3, 16] | PET hydrolysis [3, 17] | PET hydrolysis [3, 18] | PET hydrolysis [3, 19]
1 | ADNPYQRGPDPTRSSVAAVNGPFANTSVAVPTGYGFNGGRIYYPTDTSQGTFGAVAISPGYTALFSVELAWMGPWLASHGFVVIGIETNSRNDFDTARGTQLLAALDYLVQQSPVRDRIDPNRLAVSGHSMGGGGALSAALRRPALKAAVGIAPYSPSSNLANDRVPTMVFAGQADTVVTPSYATGLYNSLPTTTESAYLEVAGADHGFMVGRSNPVLIRTMLPFLKMFVDNDARYSQFLCPLADNSGVVSYRSTCPLLPPTSTTPPPIPSDTPPPIPTTPPQTTPPPSNPPGAASLIVGAQSNRCLDVPNASRANGTRVQLWDCNRGTNQSWTYTTNKQLRVYGDMCLDAAGSGNGAAVQIYGCHSQTNQQWNVNANGTISSVQSGRCLDVWSTANGAQVQLYDCHGQTNQRFTLTPLT [ESM101] | 58.6 | 149 | 7 | 19 | 8 | 4 | < 3 | < 3 | < 3 | < 3 | – | – | – | – | – | – | – | –
2 | ADNPYQRGPDPTRTSVAAVNGPFANTSVSVPTGYGFNGGRIYYPTDTSQGTFGAIAISPGYTALFSAELAWMGPWLASHGFVVIGIETNSRNDFDTARGTQLLAALDYLTQQSPVRDRVDPNRLAVSGHSMGGGGALSAAIRRSSLKAVVGIAPYSPSSNLANDRVPTMIFSGQADTVVTPSYATGLYNSLPATTESVYLEVAGADHGFMVGRSNPVMIRTMLPFVKMFIDNDTRYSQFLCPLLDSSGVVTYRSTCPLLPPAPTTPPPTGTPTPTPSSNPTTPPTTPPSTPTA [ESM061] | 62.8 | 408 | 11 ± 2.8 | 23 ± 1.4 | 5 | < 3 | < 3 | < 3 | < 3 | < 3 | < 3 | < 3 | < 3 | < 3 | < 3 | < 3 | < 3 | < 3
3 | ADNPYQRGPDPTRTSVAAVNGPFANTSVSVPTGYGFNGGRIYYPTDTSQGTFGAIAISPGYTALFSAELAWMGPWLASHGFVVIGIETNSRNDFDTARGTQLLAALDYLTQQSPVRDRVDPNRLAVSGHSMGGGGALSAAIRRSSLKAVVGIAPYSPSSNLANDRVPTMVFSGQADTVVTPSYATGLYNSLPATTESVYLEVAGADHGFMVGRSNPVMIRTMLPFVKMFIDNDTRYSQFLCPLLDSSGVVTYRSTCPLLPPAPTPSNTGTTPPTTPPVTPTTPPSSASEIVGVQSGRCIDVPNASRNNGTRVQLYDCNRQANQSWTYTSGKQLQVYGNMCLDAAGSGNGAAVQIYSCHSQTNQQWNVNSNGTISGVQSGRCLDVWSTANGAQIQLYDCHGGANQRFNLVPRT [ESM058] | 59.5 | 281 | 5.5 ± 0.71 | 12.5 ± 0.71 | 11 | 4.5 ± 0.71 | < 3 | < 3 | < 3 | < 3 | < 3 | < 3 | < 3 | < 3 | < 3 | < 3 | < 3 | < 3
4 | ADNPYQRGPDPTRTSVATENGPFANTSVSVPTGYGFNGGRIYYPTDTSQGTFGAIAISPGYTALFSAELAWMGPWLASHGFVVIGIETNSRNDFDTARGTQLLAALDYLTQQSPVRDRVDPTRLAVAGHSMGGGGALSAATRRSSLKAAVGIAPYSPSSNLANDRVPTMIFSGQADTVVTPSYATSLYNSLPSTTESIYLEVAGADHGFMVGRSNPVMIRTMLPFLKMFIDNDARYSQFLCPLLDSSGVVTSRSTCPLLPSTPTTPPTDPPTDPPTNPPGSANEIVGTQSGRCVDVPNAATTNGTRVQLYTCNKQTNQAWTYTSGKQLQVYGTMCLDAAGSGNGAAVQIYSCHSQTNQQWNVNSNGTISNVQSGRCLDVWSTSNGAQIQLYDCHGQTNQQFRLAALGGGTQTPTPTPTTPPPTGGACDLPSSYRWSSTG [ESM143] | 55.9 | 55.9 | < 3 | < 3 | < 3 | < 3 | < 3 | < 3 | < 3 | < 3 | – | – | – | – | – | – | – | –
5 | ADNPYQRGPDPTRTSVATERGPFANTSVSVPSGYGFNGGRIYYPTDTSQGTFGAIAISPGYTALFSAELAWMGPWLASHGFVVIGIETNSRNDFDTARGTQLLAALDYLTQQSPVRDRIDPNRLAVSGHSMGGGGALSAAMRRSSLKAVVGIAPYSPSSNLANDRVPTMIFSGQADTVVTPSYAMGLYNSIPAGTKSAYLEVAGGDHGFMVGRSNPVLIRTMLPFLKIFIDNDARYSQFLCPLLDNSGVVTYRSTCPFLPTTPTTPPPTG [ESM065] | 67.9 | 250 | 21 | 29 | 7 | < 3 | < 3 | 4 | < 3 | < 3 | – | – | – | – | – | – | – | –
6 | ADNPYQRGPDPTRTSVTAENGPFANTSVSVPTGYGFNGGRIYYPTDTSQGTFGAIAISPGYTALFSAELAWMGPWLASHGFVVIGIETNSRNDFDTARGTQLLAALDYLTQQSPIRDRVDPNRLAVAGHSMGGGGALSAASRRSSLRAVVGIAPYSPSSNLANDRVPTMIFSGQADTVVTPSYATGLYNSLPATTKSVYLEVAGADHGFMVGRSNPVMIRTMLPFVKMFIDNDARYSQFLCPLLDSSGVVTYRSTCPLLPSTPTTPTPTPTDPPTVPPGSANEIVGTQSGRCVDVPNASRNNGTRVQLYDCNKQTNQAWTYTATKQLQVYGNMCLDAAGSGNGAAVQIYSCHSQTNQQWNVNSNGTISSVQSGRCLDAWSTTNGAQIQLYDCHGQTNQQFRLVSLAR [ESM161] | 63.1 | 137 | 10 | 13 | 21 | 6 | < 3 | < 3 | < 3 | < 3 | – | – | – | – | – | – | – | –
7 | ADNPYQRGPDPTRTSVTAVNGPFANTSVSVPTGHGFNGGRIYYPTDTSQGTFGAIAISPGYTALFSAELAWMGPWLASHGFVVIGIETNSRNDFDTARGTQLLAALDYLTQQSPVRDRVDPSRLAVSGHSMGGGGALSAAMRRASLKAVVGITPYSPSSNLANDRVPTMIISGQADTVVTPSYALGLYNSIPATTESVYLEVAGGDHGFMVGRSNPVLVRTMLPFLKMFIDNDTRYSQFLCPLLDNSGVVTYRSTCPLLPTDPTTPPTGTPTPTPTTPAPTTPPPTTPPGSASEIRGTQSNRCIDVPNASRNNGTRVQLYDCNRQTNQAWTYTANKQLQVYGNMC [ESM106] | 62.2 | 392 | 9 ± 4.2 | 24 ± 5.7 | 28 ± 2.8 | 19 ± 1.4 | < 3 | 2 ± 2.8 | 4.5 ± 0.71 | < 3 | < 3 | 1.5 ± 2.1 | 3.5 ± 0.71 | < 3 | < 3 | < 3 | < 3 | < 3
8 | ADNPYQRGPDPTRTSVTAVNGPFANTSVSVPTGQGFNGGRIYYPTDTSQGTFGAVAISPGYTALFSAELAWMGPWLASHGFVVIGIETNSTNDFDTARGTQLLAALDYLTQRSSVRDRVDPNRLAVSGHSMGGGGALSAAARRSSLKAVVGITPYSPSSNLANVRVPTMVVSGQADTVVTPSYALNLYNSLPSTTESVYLEVAGGDHGFMVGRSNPVLVRTMLPFLKMFVDNDTRYSQFLCPLMDNSGVVTYRSTCPLLPTPTTPPPTTGPTTPPPTTPPTTTPPPSGSTGQIVGTQSNRCIDVPNSSRNNGTRVQLYDCHGQANQTWTYDSSTKQLRVYGDMCLDASGSGNGAAVQIYSCHNQTNQQWNINSNGTISGVQSNRCLDAWSTNNGAQIQLYDCHGQTNQQFRIRA [TEP168] | 65.2 | 213 | 4 | 9 | 9 ± 1.4 | 4.5 ± 0.71 | < 3 | < 3 | < 3 | < 3 | < 3 | < 3 | < 3 | < 3 | < 3 | < 3 | < 3 | < 3
9 | ADNPYQRGPDPTRTSVTAVNGPFANTSVSVPTGYGFNGGRIYYPTDTSQGTFGAIAISPGYTALFSAELAWMGPWLASHGFVVIGIETNSRNDFDTARGTQLLAALDYLTQQSPVRDRVDPNRLAVAGHSMGGGGALSAAIRRPSLKAVVGIAPYSPSSNLANDRVPTMIFSGQADTVVTPSYATGLYNSLPATTESVYLEVAGADHGFMVGRSNPVMVRTMLPFVKMFIDDDARYSQFLCPLLDNSGVVTYRSTCPLLPTTPTTPPTGTPTPTPTPTQTTPPPGSASQIVGTQSGRCVDVPNASTTNGTRVQLYDCNRQTNQAWTYTSTKQLQVYGTMCLDAAGTGNGAAVQIYSCHSQTNQQWNVNSNGTISSVQSGRCLDAWSTANGAQIQLYDCHGQTNQQFRLAALA [ESM095] | 63.7 | 147 | 11 | 21 | 22 | 10 | < 3 | < 3 | < 3 | < 3 | – | – | – | – | – | – | – | –
10 | ADNPYQRGPDPTRTSVTAVNGPFANTSVSVPTGYGFNGGRIYYPTDTSQGTFGAIAISPGYTALFSAELAWMGPWLASHGFVVIGIETNSRNDFDTARGTQLLAALDYLTQQSPVRDRVDPNRLAVAGHSMGGGGALSAATRRPSLKAVVGIAPYSPSSNLANDRVPTMIFAGQADTVVTPSYATGLYNSLPATTESVYVEVAGADHGFMVGRSNPVMVRTMLPFVKMFIDNDTRYSQFLCPLLDSSGVVTYRSTCPLLPSTPTPTDPPTPTDPPTVPPGSANEIVGTQSGRCVDVPNASRTNGTRVQLYGCNKQTNQAWTYTSSKQLQVYGNMCLDAAGTGNGAAVQIYSCHNQTNQQWNVNSNGTISNVQSGRCLDAWSTANGAQIQLYDCHGQTNQQFRLAALAG [ESM069] | 63.4 | 213 | 10.5 ± 2.1 | 29 ± 2.8 | 42 | 17 ± 1.4 | < 3 | 4.5 ± 0.71 | 4 | < 3 | < 3 | 4 | < 3 | < 3 | < 3 | < 3 | < 3 | < 3
